The values that follow come from paper PMC6299077 (Nature Communications, 2018).

This data set concerns the molecule itself. Put plainly: SEC; […] (~2.7–27 μM), […] (pH 4.4–5.6); […].

B1: tHN of BoNT/A1 (beltless translocation domain of botulinum neurotoxin A1, residues K547–K871) (domain or fragment)
chain: KYTMFHYLRAQEFEHGKSRIALTNSVNEALLNPSRVYTFFSSDYVKKVNKATEAAMFLGWVEQLVYDFTDETSEVSTTDKIADITIIIPYIGPALNIGNMLYKDDFVGALIFSGAVILLEFIPEIAIPVLGTFALVSYIANKVLTVQTIDNALSKRNEKWDEVYKYIVTNWLAKVNTQIDLIRKKMKEALENQAEATKAIINYQYNQYTEEEKNNINFNIDDLSSKLNESINKAMININKFLNQCSVSYLMNSMIPYGVKRLEDFDASLKDALLKYIYDNRGTLIGQVDRLKDKVNNTLSTDIPFQLSKYVDNQRLLSTFTEYIK
For the protein B1, the binding result is recorded as “binds”.
